From patent US20210196796A1 (SYNTHEKINE, published 2021)
Positions count from the first letter of the chain named. Names may count otherwise.

T1: orthogonal hCD122 receptor (hoRb), hCD122 with H133D and Y134F (human, UniProt P14784 27-550)
T1 sequence: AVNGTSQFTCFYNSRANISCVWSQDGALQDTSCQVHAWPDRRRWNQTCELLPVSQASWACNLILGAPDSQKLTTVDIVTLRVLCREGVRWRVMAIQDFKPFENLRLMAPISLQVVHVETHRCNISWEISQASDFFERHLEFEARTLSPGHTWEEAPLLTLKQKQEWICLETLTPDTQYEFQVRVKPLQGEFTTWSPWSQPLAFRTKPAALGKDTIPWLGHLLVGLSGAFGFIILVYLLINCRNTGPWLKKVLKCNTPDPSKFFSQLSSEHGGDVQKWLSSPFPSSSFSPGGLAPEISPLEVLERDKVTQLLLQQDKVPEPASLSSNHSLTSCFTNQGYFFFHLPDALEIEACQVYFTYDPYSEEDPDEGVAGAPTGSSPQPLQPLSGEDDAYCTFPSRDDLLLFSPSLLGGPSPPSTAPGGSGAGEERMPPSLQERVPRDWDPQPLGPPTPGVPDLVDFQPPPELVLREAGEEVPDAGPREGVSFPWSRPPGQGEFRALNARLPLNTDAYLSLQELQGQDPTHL

B1: V91K, SQVLKA (ligand)
chain: APTSSSTKKTQLQLSQLLVLLKAILNGINNYKNPKLTRMLTFKFYMPKKATELKHLQCLEEELKPLEEVLNLAQSKNFHLRPRDLISNINKIVLELKGSETTFMCEYADETATIVEFLNRWITFCQSIISTLT
B2: Q126M, SQVLKA (ligand)
chain: B1 chain with K91V, Q126M
B3: I92F, SQVLKA (ligand)
chain: B1 chain with K91V, I92F
B4: L14W, SQVLKA (ligand)
chain: B1 chain with L14W, K91V
B5: Q126H, SQVLKA (ligand)
chain: B1 chain with K91V, Q126H
B6: D109C, SQVLKA (ligand)
chain: B1 chain with K91V, D109C
B7: M104A, SQVLKA (ligand)
chain: B1 chain with K91V, M104A
B8: Q126K, SQVLKA (ligand)
chain: B1 chain with K91V, Q126K
B9: C125S, SQVLKA (ligand)
chain: B1 chain with K91V, C125S
B10: Q126D, SQVLKA (ligand)
chain: B1 chain with K91V, Q126D
B11: Q126C, SQVLKA (ligand)
chain: B1 chain with K91V, Q126C
B12: L14M, SQVLKA (ligand)
chain: B1 chain with L14M, K91V
B13: C125A, SQVLKA (ligand)
chain: B1 chain with K91V, C125A
B14: T113N, SQVLKA (ligand)
chain: B1 chain with K91V, T113N
B15: K97Q, SQVLKA (ligand)
chain: B1 chain with K91V, K97Q

These binders were tested against T1, orthogonal hCD122 receptor (hoRb), … (assay: cell-based or functional assay).
Throughout, for Relative Proliferation Fold Change 3F8 1:10: reference of the scale not given here.
Throughout, for Relative Proliferation Fold Change 3F8 1:2: reference of the scale not given here.
Throughout, for Relative Proliferation Fold Change 3F8 1:50: reference of the scale not given here.
Throughout, for Relative Proliferation Fold Change NKL 1:10: reference of the scale not given here.
Throughout, for Relative Proliferation Fold Change NKL 1:2: reference of the scale not given here.
Throughout, for Relative Proliferation Fold Change NKL 1:50: reference of the scale not given here.

| 3F8 Ortho Proliferation Signal 1:2 [cts/min] | 3F8 Ortho Proliferation Signal 1:10 [cts/min] | 3F8 Ortho Proliferation Signal 1:50 [cts/min] | Relative Proliferation Fold Change 3F8 1:2 [fold] | Relative Proliferation Fold Change 3F8 1:10 [fold] | Relative Proliferation Fold Change 3F8 1:50 [fold] | Binder |
| --- | --- | --- | --- | --- | --- | --- |
| 3720 | 992 | 804 | 13.4 | 1.44 | 1.25 | B1 |
| 33100 | 33200 | 17100 | 154 | 55.6 | 31.8 | B2 |
| 29700 | 36300 | 20900 | 80.2 | 57.6 | 18.4 | B3 |
| 35300 | 36000 | 13600 | 66.2 | 31.8 | 16.5 | B4 |
| 36500 | 38600 | 18700 | 181 | 54.1 | 14.5 | B5 |
| 29100 | 34000 | 18600 | 84 | 51.4 | 23.2 | B6 |
| 29300 | 42400 | 27100 | 24.4 | 37.6 | 39.7 | B7 |
| 2720 | 2490 | 964 | 9.18 | 7.29 | 1.51 | B8 |
| 36200 | 45000 | 26100 | 140 | 66.6 | 26.9 | B9 |
| 294 | 368 | 544 | 0.63 | 0.4 | 0.61 | B10 |
| 452 | 574 | 748 | 2.28 | 0.68 | 1.4 | B11 |
| 39800 | 41500 | 18500 | 40.9 | 34.1 | 12.1 | B12 |
| 43700 | 44600 | 24800 | 0.72 | 4.37 | 5.3 | B13 |
| 31600 | 33100 | 13600 | 39.6 | 38.8 | 12.7 | B14 |
| 35600 | 40100 | 19700 | 91.6 | 32.5 | 33.1 | B15 |

Target: T1, orthogonal hCD122 receptor (hoRb), …
Assay: cell-based or functional assay
Remark: another data set of the same source

| NKL Ortho Proliferation Signal 1:2 | NKL Ortho Proliferation Signal 1:10 | NKL Ortho Proliferation Signal 1:50 | Relative Proliferation Fold Change NKL 1:2 [fold] | Relative Proliferation Fold Change NKL 1:10 [fold] | Relative Proliferation Fold Change NKL 1:50 [fold] | Binder |
| --- | --- | --- | --- | --- | --- | --- |
| 5180 | 5210 | 4940 | 0.74 | 0.63 | 0.53 | B1 |
| 19800 | 18700 | 9760 | 2 | 1.29 | 0.74 | B2 |
| 32200 | 27000 | 12800 | 2.32 | 1.84 | 0.92 | B3 |
| 50300 | 45100 | 20900 | 4.04 | 2.83 | 1.39 | B4 |
| 43600 | 29000 | 15800 | 3.64 | 1.92 | 1.09 | B5 |
| 47800 | 44200 | 20400 | 4.2 | 3.22 | 1.52 | B6 |
| 47600 | 54800 | 29500 | 3.88 | 3.48 | 2.09 | B7 |
| 6510 | 7930 | 6980 | 0.54 | 0.56 | 0.53 | B8 |
| 48200 | 59500 | 27800 | 4.29 | 4.53 | 2.26 | B9 |
| 4640 | 7560 | 6380 | 0.39 | 0.49 | 0.46 | B10 |
| 6560 | 8210 | 7200 | 0.44 | 0.53 | 0.49 | B11 |
| 57200 | 54500 | 26700 | 3.76 | 3.45 | 1.98 | B12 |
| 42000 | 50400 | 22800 | 3.95 | 3.6 | 1.95 | B13 |
| 47400 | 48800 | 21400 | 3.71 | 3.45 | 1.63 | B14 |
| 53000 | 55400 | 25200 | 3.29 | 3.64 | 1.9 | B15 |
